According to paper PMC3642112:

Legend:
[1] = target: human translin (wild-type) (human, UniProt Q15631 1-228); assay: EMSA
[2] = target: T1, translin (wild-type, native) (Drosophila melanogaster, UniProt Q7JVK6 1-235); assay: EMSA
T1 sequence: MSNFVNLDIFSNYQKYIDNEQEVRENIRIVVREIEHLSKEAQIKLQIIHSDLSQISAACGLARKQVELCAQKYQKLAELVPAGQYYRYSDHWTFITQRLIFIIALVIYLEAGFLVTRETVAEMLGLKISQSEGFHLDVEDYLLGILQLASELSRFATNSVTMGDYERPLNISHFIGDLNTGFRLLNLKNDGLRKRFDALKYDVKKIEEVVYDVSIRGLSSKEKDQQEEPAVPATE

Chain of human translin (wild-type) (Q15631 whole entry): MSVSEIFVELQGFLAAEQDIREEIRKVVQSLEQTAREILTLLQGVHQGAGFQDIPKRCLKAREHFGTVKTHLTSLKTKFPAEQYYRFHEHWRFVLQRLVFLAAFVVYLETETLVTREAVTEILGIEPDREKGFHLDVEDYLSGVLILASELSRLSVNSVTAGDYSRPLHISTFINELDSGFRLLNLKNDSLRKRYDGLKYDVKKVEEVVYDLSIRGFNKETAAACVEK

## GCCCTCCTGCCCTCCTTCCGCGGG (ssDNA) [Bcl-CL1 24-mer ssDNA]
[1]
  binding result: binds
[2]
  binding result: binds
